Data on 30 sequences can be found in the nanobody polyreactivity screen of Harvey et al. (2022).

A short description of the series: yeast display, Sf9 membrane polyspecificity reagent, FACS + sequencing; frameworks hold sequencing errors. The method, boiled down: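 Nanobodies came from a synthetic yeast display library in Saccharomyces cerevisiae BJ5465, induced with galactose for 36–48 hours and stained for 1 hour at 4 °C with 10% biotinylated, detergent-solubilized Sf9 membrane reagent. Cells were enriched on streptavidin microbeads and then FACS-sorted, with low and high (top ~1%) gates set on anti-HA fluorescence for expression and streptavidin fluorescence for reagent binding. Each polyreactivity label reflects the gate a clone came from. Genes were amplified by colony PCR, sequenced by MiSeq 2 × 250 and filtered by CDR length.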
Take “QVQLVESGGGLVQAGGSLRLSCAASGSIFREYAMGWYRQAPGKERELVAAITKSGGRTYYADSVKGRFTISRDNAKNTVYLQMNSLKPEDTAVYYCAADSRNSRQHTSYNRLNYWGQGTQVTVSS”: the “polyreactivity (PSR sort gate)” value is “high polyreactivity”.
For the sequence “QVQLVESGGGLVQAGGSLRLSCAASGSIFRFNAMGWYRQAAGKERELVAAISVRGSRTYYADSVKGRFTSSSDNAKNTVYLQMNSLKPEDTAVYYCNAEALTYSSRYDYWGQGTQVTVSS”, the “polyreactivity (PSR sort gate)” value is reported as “low polyreactivity”.
In the case of “QVQLVESGGGLVQAGGSLRLSCAASGSIFRFYTMGWYRQAPGKQRELVAAISASGGNTYYADSVKGRFTISRDNAKNTVYLQMNSLKPEDTAVYYCARVKFTKYDYWGQGTQVTVSS” it was “high polyreactivity”; in that of “QVQLVESGGGLVQAGGSLRLSCAASGSIFRFYVMGWYRPAPGKERELVAAISIGGSTNYADSVKGRFTISRDNAKNTVYLQMNSLKPEDTAVYYCAADYWYGAVLPHGTEFDYWGQGTQVTVSS”, “low polyreactivity”.
Next, “QVQLVESGGGLVQAGGSLRLSCAASGSIFRFYVMGWYRQAPGKERELVAAISIGGSTNYADSVKGRFTISRDNAKNTVFLQMNSLKPEDTAVYYCAADYWYGAGMPHGTEFDYWGQGTQVTVSS”: “low polyreactivity”; “QVQLVESGGGLVQAGGSLRLSCAASGSIFRGNAMGWYRQAPGKERELVAAITRSGGRTYYADSVKGRFTISRDNANNTVYLQMNCLKPEDTAVYFCAADYPYGSPTHFDYWGQGTQVTVSS”: “high polyreactivity”.
In the case of “QVQLVESGGGLVQAGGSLRLSCAASGSIFRGNAMGWYRQAPGKERELVAAITRSGGRTYYADTVKGRFTISRDNAKNTVYLHMNSLKPEDTAVYYCAAEYYTRLGYWGQGTQVTVSS” it was “high polyreactivity”; in that of “QVQLVESGGGLVQAGGSLRLSCAASGSIFRGYAMGSYRQAPGKERELVATIDSSAGSTYYADSVKGRCTISRDNAKNTVYLQMNSLKPEDTAVYYCATDPYGYYYSGFDYWGQGTQVTVSS”, “low polyreactivity”.
Consider “QVQLVESGGGLVQAGGSLRLSCAASGSIFRGYAMGWYRQAPEKERELVAAISRRGGSTYYADSVKGRFTISRDNAKNTVYLQMNSLKPEDTAVYYCAKDGTGAGTYDYWGQGTQVTVSS”, for which the “polyreactivity (PSR sort gate)” value is “low polyreactivity”.
Regarding “QVQLVESGGGLVQAGGSLRLSCAASGSIFRGYAMGWYRQAPGKERELVAAISWSGGSTYYADSVKGRFTISRDNAKNTVYLQMNSLKPEDTAVYYCAVEYVAYLYRMDYWGQGTQVTVSS”, the “polyreactivity (PSR sort gate)” value is listed as “high polyreactivity”.
Next, “QVQLVESGGGLVQAGGSLRLSCAASGSIFRGYAMGWYRQAPGRERELVAAISRSGGSTYYADSVKGRFTISRDNAKNTVYLQMNSLKPEDTAVYYCAALLRGRYRMYYWGQGTQVTVSS”: “high polyreactivity”; “QVQLVESGGGLVQAGGSLRLSCAASGSIFRGYAMGWYRQAPGTERELVAAITSSAGSTYYADSVKGRFTISRDNAKNTVYLQMNSLKPEDSAVYYCNKYPRASRRGFDYWGQGTQVTVSS”: “high polyreactivity”; “QVQLVESGGGLVQAGGSLRLSCAASGSIFRGYTMGWYIQAPGKERELVAAISTRGGSTYYADSVKGRFTISRDNSKNTVYLQMNSLKPEDTAVYYCNARSRGRASGYDYWGQGTQVTVSS”: “high polyreactivity”.
In the case of “QVQLVESGGGLVQAGGSLRLSCAASGSIFRGYTMGWYRQAPGKERELVAAISWSGGSTYYADSVKGRFTISRDNAKNTVYLQMNSLKPEDTAVYYCAAGDYYHRIFLWYDYWGQGTQVTVSS”, the “polyreactivity (PSR sort gate)” value is listed as “low polyreactivity”.
With “QVQLVESGGGLVQAGGSLRLSCAASGSIFRHNAMGWYRQAPGKERELVAAITSRGGSTYYADSVKGRFTISRDNAKNTVYLQMNSLKPEDTAVYYCAAGGHYYSSPGYNYWGQGTQVTVSS”, the “polyreactivity (PSR sort gate)” value is reported as “high polyreactivity”.
In the case of “QVQLVESGGGLVQAGGSLRLSCAASGSIFRHNVMGWYRQAPGKERELVAAISGGGGRTYYADSVKGRFTISRDNAKNTVYLQMNSLKPEDTAVYYCNAYVGLSEGDYWGQGTQVTVSS” it was “high polyreactivity”; in that of “QVQLVESGGGLVQAGGSLRLSCAASGSIFRINAMGWYRQAPGKEREFVAAISSRGGSTYYADSVKGRFTISRDNAKNTVYLQMKSLKPEDTAVYYCAKYASVGYGRYPYDYWGQGTQVTVSS”, “high polyreactivity”; in that of “QVQLVESGGGLVQAGGSLRLSCAASGSIFRINDMGWSRQAPGKERELVAAITFSGGSTYADSVKGRFTISRDNAKNTVYLQMNSLKPEDTAVYYCNADGAYWTDYYLYDYWGQGTQVTVSS”, “low polyreactivity”.
In the case of “QVQLVESGGGLVQAGGSLRLSCAASGSIFRIYAMGWYRQAPGIERELVAAINAGGGRTYYADSVKGRFTISRDNAKNTVYLLMNSLKPEDTAVYYCAARHTEYRQESLYYWGQGTQVTVSS” it was “low polyreactivity”; in that of “QVQLVESGGGLVQAGGSLRLSCAASGSIFRIYAMGWYRQAPGKERELVAAIDSSGGSTYYADSVKGRFTISRDNAKNTVYFQMNSLKPEDTAVYYCNATFGYPFVDYDDYWGQGTQVTVSS”, “low polyreactivity”.
For “QVQLVESGGGLVQAGGSLRLSCAASGSIFRIYAMGWYRQAPGKERELVAAIRNSGRTYYADSVKGRFTISRDNAKNTVYLQMNSLKPEDTAVYYCAAVGGRLRGDRGGYWGQGTQVTVSS”, the “polyreactivity (PSR sort gate)” value was “high polyreactivity”.
Next, “QVQLVESGGGLVQAGGSLRLSCAASGSIFRIYAMGWYRQAPGKERELVAAISFSTGSRTYYADSVKGRFTISRDNAKNTVYLQMNSLKPEDTAVFYCNAESYYDYNYWGQGTQVTVSS”: “low polyreactivity”; “QVQLVESGGGLVQAGGSLRLSCAASGSIFRKNAMGWYRQAPGKERELVAAITGTGRTTYADSVKGRFTISRDNAKNTVYLQMNSLKPEDTAVYYCAAEYYYRYSYTNEGDYWGQGTQVTVSS”: “low polyreactivity”; “QVQLVESGGGLVQAGGSLRLSCAASGSIFRKNAMGWYRQAPGKERELVATISGGGSTTYADSVKGRFTISRDNAKNTVYLQMNSLKPEDTADYYCAARSTWFQIRYGYWGQGTQVTVSS”: “high polyreactivity”.
As for “QVQLVESGGGLVQAGGSLRLSCAASGSIFRKNAMGWYRQAPGKETELVAAITGSGRTTYADSVKGRFTISRDNAKNTVYLQMNSLKPEDTAVYYCAADVNYYQHRLYYWGQGTQVTVSS”, the “polyreactivity (PSR sort gate)” value is given as “low polyreactivity”.
For “QVQLVESGGGLVQAGGSLRLSCAASGSIFRKYAMGWYRQATGKERELVAAIRSSGGSTYYADSVKGRFTISRDNAKNTVYLQMNSLKPEDTSVYYWAATTGEHEDFRGQGTQVTVSS”, the “polyreactivity (PSR sort gate)” value is given as “high polyreactivity”.
In the case of “QVQLVESGGGLVQAGGSLRLSCAASGSIFRKYVMGWYRQAPGKERELVAAISGSGGRTYYADSVKGRFTISRDNAKNTVYLQMNSLKPEDTAVSYSNAYPHAYTGSTREGDYWGQGTQVTVSS” it was “high polyreactivity”; in that of “QVQLVESGGGLVQAGGSLRLSCAASGSIFRLYGKGLYRQAPGKEREFGASITYRGGNTYYADSVKGRFTISRDNAKNTVYLQMNSLKPEDTAVYYCARSGYQKVGGFRYDYWGQGTQVTVSS”, “low polyreactivity”.
In the case of “QVQLVESGGGLVQAGGSLRLSCAASGSIFRNYAMGWYRQAPGKERELVARISYSGGRTHYADSVKGRFTISRDNAKNTVYLQMNSLKPEDTAVYYCAAPFHFTHFQGNYYWGQGTQVTVSS”, the “polyreactivity (PSR sort gate)” value is given as “low polyreactivity”.
In the case of “QVQLVESGGGLVQAGGSLRLSCAASGSIFRNYAMGWYRQAPGKERELVAVITQRGGRTYYADSVKGRFTISRDNAKNTVYLQMNSLKPEDTAVYYCAASYRGVPEYDSWGQGTQVTVSS” it was “low polyreactivity”.
